Test results from patent EP1602931A1, “SR-A antagonists” (Universiteit Leiden, priority 2004, dated 2005).
Where two headings read alike, the source gives them in different places. No end group written: not given here.

Tests used:
[1] = molecular target: T1, immobilized, biotinylated, synthetic, truncated SR-AI (Bos taurus, UniProt P21758); assay: Competition of selected phage pool binding to immobilized synthetic SR-AI; design: species or system bovine
T1 sequence (P21758 1-453): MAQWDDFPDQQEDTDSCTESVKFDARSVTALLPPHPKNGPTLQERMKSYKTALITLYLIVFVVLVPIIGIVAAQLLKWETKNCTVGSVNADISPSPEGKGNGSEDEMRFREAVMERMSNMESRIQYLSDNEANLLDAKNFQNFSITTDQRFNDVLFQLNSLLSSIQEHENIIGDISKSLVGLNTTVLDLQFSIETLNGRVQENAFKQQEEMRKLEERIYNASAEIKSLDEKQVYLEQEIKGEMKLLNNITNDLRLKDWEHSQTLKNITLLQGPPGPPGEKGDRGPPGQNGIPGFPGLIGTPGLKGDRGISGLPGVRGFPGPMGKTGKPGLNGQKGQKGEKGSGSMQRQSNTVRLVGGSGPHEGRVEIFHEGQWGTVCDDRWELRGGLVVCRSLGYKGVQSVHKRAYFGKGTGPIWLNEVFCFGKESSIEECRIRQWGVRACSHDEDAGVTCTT
Excerpt: (§1) All peptides were synthesized on an automated peptide synthesizer (9050 Millipore, MA) using standard Fmoc solid-phase peptide synthesis. Crude peptides were purified on a preparative C8 RP-HPLC column (Altech, Deerfield, IL) using a JASCO PU-980 (Tokyo, Japan). Purified peptides were further characterized by LC-MS in Division of Analytical Biosciences, Leiden University. The purity of the peptide, as checked by MALDI-TOF mass spectrometry and RP-HPLC, was at least 70%. Lyophilized peptides were stored at -20°C under nitrogen until further use. Synthetic biotinylated bovine SR-AI was synthesized, purified and characterised as described by Suzuki et al. (Suzuki et al., 1999).
In analogy to the phage selection procedure, 10 µg/ml of streptavidin in coating buffer was incubated overnight at 4°C in a high-binding 96-well plate at 100 µl/well. Wells were washed 3x with assay buffer and incubated for 1 h at 37°C with blocking buffer. Next, wells were incubated for 2h at 37°C with 125 nM biotininylated SR-AI binding peptide (100 µl/well), washed 3x with binding buffer, after which the SR-AI ligands or synthetic SR-AI binding peptides (7, 9, 11, 13, 15 a. a.) were added and the solution (100 µl) was left to incubate for 2h at RT with the enriched phage pool (round 7) at 10^8 cfu. Wells were washed 10x with binding buffer, binding phage were eluted by incubation for 5 min at RT with 100 µl elution buffer, and neutralized with 50 µl neutralization buffer (1M Tris-HCI, pH 8.5). Residual phage binding was calculated from the output ratio.

[2] = molecular target: T2, synthetic biotinylated bovine SR-AI (truncated, comprising the ligand binding pocket) (Bos taurus, UniProt P21758); assay: Competition of enriched phage pool binding to immobilized biotinylated synthetic SR-AI; conditions: displacement of enriched phage pool (round 7, 10^8 cfu) from streptavidin-immobilized biotinylated SR-AI peptide; 0-300 µm peptide; 2h at RT; calculated from displacement curves
T2 sequence (P21758 272-343): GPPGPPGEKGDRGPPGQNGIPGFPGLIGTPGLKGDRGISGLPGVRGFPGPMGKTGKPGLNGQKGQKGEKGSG
Excerpt: as §1
10 µg/ml of streptavidin in coating buffer (50 mM NaHC03, pH 9.6) was incubated overnight at 4°C in a high binding 96 well plate (Costar, Coming, UK) at 100 µl/well. Subsequently, wells were washed with assay buffer (20 mM HEPES, 150 mM NaCl, 1mM CaCl2, pH 7.4) and incubated for 1 hour at 37°C with blocking buffer (3% BSA in assay buffer). […]
In analogy to the phage selection procedure, 10 µg/ml of streptavidin in coating buffer was incubated overnight at 4°C in a high-binding 96-well plate at 100 µl/well. […] Residual phage binding was calculated from the output ratio.

[3] = molecular target: Synthetic biotinylated bovine SR-AI (synthetic, truncated SR-AI comprising the ligand binding pocket) (bovine) (UniProt P21758); assay: competition of selective phage pool binding to immobilized biotinylated SR-AI by suc-HSA
[4] = molecular target: Synthetic biotinylated bovine SR-AI (synthetic, truncated SR-AI comprising the ligand binding pocket) (bovine) (UniProt P21758); assay: competition of enriched phage pool binding to immobilized biotinylated SR-AI; IC50 against that of poly I
[5] = molecular target: Synthetic biotinylated bovine SR-AI (synthetic, truncated SR-AI comprising the ligand binding pocket) (bovine) (UniProt P21758); assay: competition of enriched phage pool binding to immobilized biotinylated SR-AI peptide by synthetic peptide
[6] = molecular target: Synthetic biotinylated bovine SR-AI (synthetic, truncated SR-AI comprising the ligand binding pocket) (bovine) (UniProt P21758); assay: as above; remark: listed apart in the source
[7] = synthetic peptides (0-300 µM) competing with binding of enriched phage pool (round 7) to biotinylated SR-AI peptide, calculated from displacement curves, three independent experiments

Row | Molecule | IC50 [1, 7] | IC50 [6] | also measured
1 | LERFLRCWSDAPA [LERFLRCWSDAPA] | 72.3 µM | – | –
2 | LSLERFLRCWSDAPA [PP1, LSLERFLRCWSDAPA] | 29.1 µM | – | IC50 [1]: 28.3 µM
3 | LSLERFLRCWSDAPA [PP1] | – | – | IC50 [2]: 29 µM
4 | RFLRCWSDAPA [RFLRCWSDAPA] | 80.9 µM | – | –
5 | Succinylated human serum albumin (from UniProt P02768 25-609) (ligand) | – | – | IC50 [3]: 66 µg/mL
6 | LSLERFLRCWSDAPA [PP1 (…), synthetic full-length peptide] | – | – | fold less potent than poly I [4]: 5 fold; IC50 [5]: 50 µg/mL
7 | LERFLRCWSDAPA [PP1-13 (…)] | – | 72.3 µM | –
8 | RFLRCWSDAPA [PP1-11 (…)] | – | 80.9 µM | –
9 | CWSDAPA [PP1-7 (CWSDAPA)] | – | 217 µM | –
